Laboratory results taken from the Immune Epitope Database (IEDB).

Tests used:
HLA-A*01:01 = test: IEDB peptide-MHC binding, purified MHC/direct/fluorescence; filed as Kd, often an IC50 or EC50 that approximates it; ≥ and ≤ were set here for values at or beyond the usual limits of such assays
HLA-A*02:01 [1] = test: as above
HLA-A*03:01 = test: as above
HLA-A*11:01 = test: as above
HLA-A*24:03 = test: as above
HLA-A*26:01 = test: as above; conditions: source organism: Giardia lamblia ATCC 50803
HLA-A*30:01 = test: as above
HLA-A*31:01 = test: as above; conditions: source organism: Giardia lamblia ATCC 50803
HLA-A*69:01 = test: as above
HLA-B*07:02 = test: as above
HLA-B*08:01 = test: as above
HLA-B*15:01 [2] = test: as above
HLA-B*27:05 = test: as above
HLA-B*40:01 = test: as above
HLA-B*44:02 = test: as above; conditions: source organism: Giardia lamblia ATCC 50803
HLA-B*58:01 = test: as above
HLA-A*02:01 [3] = test: IEDB peptide-MHC binding, purified MHC/competitive/fluorescence; ≥ and ≤ were set here for values at or beyond the usual limits of such assays; conditions: source organism: Vaccinia virus
HLA-B*15:01 [4] = test: as above; conditions: source organism: Vaccinia virus
HLA-C*15:02 = test: IEDB peptide-MHC binding, purified MHC/direct/fluorescence; filed as Kd, often an IC50 or EC50 that approximates it; ≥ and ≤ were set here for values at or beyond the usual limits of such assays; conditions: source organism: Caenorhabditis elegans
[5] = source organism: Giardia lamblia ATCC 50803
[6] = source organism: Pseudomonas savastanoi
[7] = source organism: Pseudomonas aeruginosa

RTRFFCIPK
Kd (HLA-A*01:01; [5]): ≥ 20 µM
Kd (HLA-A*02:01 [1]; [5]): 17.4 µM
Kd (HLA-A*03:01; [5]): 0.0273 µM
Kd (HLA-A*11:01; [5]): 0.0209 µM
Kd (HLA-A*24:03; [5]): ≥ 20 µM
Kd (HLA-A*26:01): ≥ 20 µM
Kd (HLA-A*30:01; [5]): 0.00137 µM
Kd (HLA-A*31:01): 0.0182 µM
Kd (HLA-A*69:01; [5]): ≥ 20 µM
Kd (HLA-B*07:02; [5]): ≥ 20 µM
Kd (HLA-B*08:01; [5]): ≥ 20 µM
Kd (HLA-B*15:01 [2]; [5]): ≥ 10 µM
Kd (HLA-B*27:05; [5]): 0.321 µM
Kd (HLA-B*40:01; [5]): ≥ 20 µM
Kd (HLA-B*44:02): ≥ 20 µM
Kd (HLA-B*58:01; [5]): ≥ 20 µM

SQYVDDANL
IC50 (HLA-A*02:01 [3]): 45.4 µM
IC50 (HLA-B*15:01 [4]): ≥ 404 µM

TNFEFFGKL
Kd (HLA-C*15:02): 1.6 µM

TYYPQVVLG
Kd (HLA-A*01:01; [6]): ≥ 20 µM
Kd (HLA-A*02:01 [1]; [6]): ≥ 20 µM
Kd (HLA-A*03:01; [6]): ≥ 20 µM
Kd (HLA-A*11:01; [7]): 5.12 µM
Kd (HLA-A*24:03; [7]): 3.2 µM
Kd (HLA-A*30:01; [7]): ≥ 10 µM
Kd (HLA-A*69:01; [6]): ≥ 20 µM
Kd (HLA-B*07:02; [6]): ≥ 20 µM
Kd (HLA-B*08:01; [6]): ≥ 20 µM
Kd (HLA-B*15:01 [2]; [7]): ≥ 20 µM
Kd (HLA-B*27:05; [6]): ≥ 20 µM
Kd (HLA-B*40:01; [6]): ≥ 20 µM
Kd (HLA-B*58:01; [7]): 6.85 µM
